{"source": "patent US20200239597A1", "about": "“AN ANTI-APOPTOTIC FUNCTION OF PKM2 AND INTRACELLULARLY EXPRESSED SCFV ANTIBODIES” (La Jolla Institute for Allergy and Immunology, priority 2017, published 2020)", "molecules": {"B1": {"name": "IB5: intracellularly expressed single-chain antibody (scFv) specific for PKM2, SEQ ID NO: 2; also made as monovalent recombinant scFv in E. coli (protein)", "scFv": "MAQVQLVETGPGLVKPSETLSLRCTVSGGSFDNYYWNWIRQPPGKGLEYIGYVFPSTGATNYNPSLGSRVTISLDTSKNQFSLTLTSVTTADTAIYYCVRSGHDLWTGSTWFDPWGQWTTVTVSSGGGGSGGGGSGGGGSEIVLTQSPGTLSLSPGERATLSCRASQSVSSSYLAWYQQKPGQAPRLLIYGASSRATGIPDRFSGSGSGTDFTLTISRLEPEDIAVYYCQQRSNWPRTFGQGTKVEIKRGLGGLASVDYKDDDDK", "modifications": "artificial intrabody clone 5", "notes": "also made as monovalent recombinant scFv in E. coli"}}, "key": {"WT PKM2": {"target": "T1, WT PKM2 (Homo sapiens, UniProt P14618)", "T1 construct": "His (N); made in house; host or cells: Escherichia coli BL21(DE3)", "test": "Blue native gel electrophoresis of recombinant proteins, WT PKM2", "format": "binding", "description": "(§1) Left: A monovalent form of scFv 5, produced in E. coli, induced tetramer formation in WT PKM2 along with a bandshift whose magnitude was dependent on the input amount of scFv 5. […] Reaction volume was 20 μl.\nBecause glucose metabolism can influence cell survival (Fulda and Debatin, 2007; Moley and Mueckler, 2000; Munoz-Pinedo et al., 2012), The present inventors asked whether IB5 could rescue cells simply through stimulating PKM2's glycolytic activity. First, to analyze the antibody's interaction with PKM2, the present inventors produced monovalent scFv 5 and PIKM2 as recombinant proteins in E. coli and analyzed mixtures of these proteins, by blue native gel electrophoresis (FIG. 3A)."}, "[1]": {"tested_on": "mitochondria isolated from 293T cells", "test": "Mitochondria isolation and cytochrome c release assay (MOMP induced by cleaved Bid)", "format": "cell-based, human", "conditions": "mitochondria from IB5-expressing 293T cells, 30 min at 37° C.", "description": "Control (top) or Intrabody-expressing (bottom) 293T cells were collected and the mitochondrial fraction was isolated by differential centrifugation. To induce MOMP, recombinant cBid protein was added at the indicated concentrations. After incubation for 30 min at 37° C., samples were centrifuged, and cytochrome c (cyt c) content in mitochondrial pellet fractions was analyzed by immunoblot. A representative of three independent experiments is shown. Right panel: densitometric quantification of average cytochrome c content ±SEM from three independent experiments.\nMitochondria were isolated from 5×10^8 cells as described (Waterhouse et al., 2001). The freshly isolated mitochondria ([…]) were then incubated with recombinant cleaved Bid protein (Kuwana et al., 2002) at the indicated concentrations in the presence or absence of purified scFv #5. After incubation for 30 min at 37° C., mitochondria were collected by centrifugation at 10 000×g and analyzed by immunoblotting as described (Waterhouse et al., 2001)."}, "PKM2 (K422R) [2]": {"target": "T2, PKM2 (K422R) (Homo sapiens, UniProt P14618, K422R)", "T2 construct": "His; made in house; host or cells: Escherichia coli BL21(DE3) (stated generally for WT and mutant PKM2)", "T2 sequence (P14618 whole entry K422R)": "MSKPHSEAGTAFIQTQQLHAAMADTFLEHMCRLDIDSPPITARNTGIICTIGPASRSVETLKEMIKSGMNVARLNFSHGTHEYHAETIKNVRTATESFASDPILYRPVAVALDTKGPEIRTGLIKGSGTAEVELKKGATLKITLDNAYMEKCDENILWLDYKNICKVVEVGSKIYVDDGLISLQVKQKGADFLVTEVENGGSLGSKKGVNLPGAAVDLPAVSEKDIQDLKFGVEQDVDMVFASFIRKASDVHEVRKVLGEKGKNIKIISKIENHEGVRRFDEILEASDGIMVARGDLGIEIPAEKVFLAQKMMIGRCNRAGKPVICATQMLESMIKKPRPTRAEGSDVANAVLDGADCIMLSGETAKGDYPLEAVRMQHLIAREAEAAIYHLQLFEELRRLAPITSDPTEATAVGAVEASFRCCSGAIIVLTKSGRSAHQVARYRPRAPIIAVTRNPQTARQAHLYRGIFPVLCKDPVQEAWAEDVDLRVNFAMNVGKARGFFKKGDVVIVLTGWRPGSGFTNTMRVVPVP", "test": "Pyruvate kinase assay, PKM2 (K422R)", "format": "biochemical", "description": "Activity was measured by Kinase-Glo® Plus Luminescent Kinase Assay kit (promega), using ADP and PEP as substrates), with PKM2 at 50 nM. Shown are values with the basal activity of PKM2 alone subtracted out.\nPyruvate kinase activity was measured by using Kinase-Glo® Plus Luminescent Kinase Assay kit (Promega). 50-100 nM of purified WT or mutant PKM2 was added in 100 μl assay buffer containing 50 mM Tris pH7.5, 100 mM KCl, 10 mM MgCl2, 200 μM PEP, 200 μM ADP, and 3% DMSO. After a 15-min incubation, Kinase-Glo Plus™ reagent (Promega Corporation, Madison, Wis., USA) was added, according to the manufacturer's instructions. In some cases, 0-40 μM fructose 1,6-bisphosphate (FBP) and 0-150 nM scFv 5 were added."}, "[3]": {"tested_on": "endogenous PKM2, Bim EL and L isoforms", "test": "Expression of endogenous PKM2 and Bim isoforms in 293T cells", "format": "cell-based, human"}, "Mfn1, Mfn2": {"tested_on": "Mfn1, Mfn2", "test": "Immunoblot of Mfn1 and Mfn2 protein levels in reconstituted MEFs", "format": "cell-based, mouse"}, "HCT116 and U2OS cells": {"tested_on": "HCT116 and U2OS cells", "test": "Clonogenic survival with etoposide or staurosporine", "format": "cell-based", "conditions": "150 nM etoposide", "description": "5×10^5 HCT116 and U2OS cells were plated and transfected with BimS expression plasmid including 150 nM etoposide or 1 μM Staurosporine. The plates were fixed and stained with crystal violet after 5 days and the total areas of colonies were measured. Mean, SD and P values were calculated from 3 individual plates."}, "293T cells": {"tested_on": "293T cells", "test": "siRNA silencing of PKM2, rescue from BimS killing", "format": "cell-based, human", "conditions": "30 nM PKM2-specific siRNA", "description": "5×10^5 cells were incubated per well for 12 h, then cells were either mock-transfected, transfected with 30 nM PKM2-specific siRNA (si M2), or transfected with NF-kB p50-specific siRNA (si p50). After a further 36-h incubation, samples of the same siRNAs were added along with 4 μg of BimS cDNA in fresh medium. Viable cells were counted after another 48-h incubation.\nUntreated or IB5-infected 293T cells (5×10^5 per well) were seeded into 6-well plates (Falcon) and transfected with 30 nM siRNA. Lipofectamine™ 2000 (Invitrogen, Carlsbad, Calif., USA) was used for transient transfection according to the manufacturer's protocol. After a 30-h incubation, fresh medium containing 30 nM siRNA and 4 μg/ml BimS expression plasmid was added. Cell viability assay was assayed after a further 36-h incubation. The PKM2-siRNA and control siRNA were purchased from Dharmacon (SiGENOME SMART™ pool hPKM2, Si156, and ONTARGETplus™ non-targeting siRNA #2) (Goldberg and Sharp, 2012)."}, "PKM2 (K422R) [4]": {"target": "T2, PKM2 (K422R)", "test": "Blue native gel electrophoresis, PKM2 (K422R)", "format": "binding", "conditions": "with or without FBP", "description": "as §1\nTo test the possibility that PKM2 tetramerization is important for the cell survival activity, the present inventors reconstituted PKM2-deficient MEFs with the stably tetrameric PKIM2 (K422R) mutant. […] Blue native gel electrophoresis confirmed the spontaneous formation of K422R tetramers, in the absence of FBP (FIG. 4A). […] The present inventors conclude that IB5 can bind to PKIM2 (K422R), at least to the active R-state form. Interaction of IB5 may further stabilize the active R-state conformation of PKM2, especially in the presence of the allosteric activators FBP or TEPP-46."}}, "data": [{"molecule": "B1", "values": [{"measurement": "tetramer formation of WT PKM2", "setting": "WT PKM2; blue native gel", "value": "strongly increased the tetrameric PIKMV2 species"}, {"measurement": "direct binding to PKM2", "setting": "WT PKM2; in vitro experiments", "value": "bound directly to PKM2"}, {"measurement": "resistance of mitochondria to MOMP induced by cleaved Bid protein", "setting": "[1]", "value": "reproducibly more resistant than control mitochondria to MOMP"}, {"measurement": "glycolytic activity of PKM2 (K422R)", "setting": "PKM2 (K422R) [2]", "value": "stimulated the glycolytic activity of PKM2 (K422R) in a concentration-dependent manner"}, {"measurement": "activity of PKM2 (K422R) compared with WT PKM2", "setting": "PKM2 (K422R) [2]; high concentrations of scFv 5", "value": "at least equal to that of WT PKM2"}, {"measurement": "expression of endogenous Bim EL and L isoforms", "setting": "[3]", "value": "no effect"}, {"measurement": "expression of endogenous PKM2", "setting": "[3]", "value": "no effect"}, {"measurement": "levels of Mfn1", "setting": "Mfn1, Mfn2; cells expressing the K422R mutant", "value": "upregulated Mfn1 even further"}, {"measurement": "Mfn2 levels", "setting": "Mfn1, Mfn2; reconstituted MEFs", "value": "left Mfn2 levels unchanged"}, {"measurement": "levels of Mfn1", "setting": "Mfn1, Mfn2; reconstituted MEFs", "value": "substantially increased"}, {"measurement": "clonogenic survival in cells treated with etoposide", "setting": "HCT116 and U2OS cells", "value": "promoted clonogenic survival"}, {"measurement": "ability to rescue cells from BimS killing after PKM2 silencing", "setting": "293T cells", "value": "substantial reduction"}, {"measurement": "shift of the PKM2 (K422R) tetramer band", "setting": "PKM2 (K422R) [4]", "value": "shifted the tetramer band up only in the presence of allosteric activator FBP"}]}]}
